Earlier results in publication PMC8417749.

Legend:
CXCR1 (Homo sapiens) = CXCR1 (Homo sapiens) (UniProt P25024)
CXCR2 (Homo sapiens) = CXCR2 (Homo sapiens) (UniProt P25025)
Sequence of CXCR2 (Homo sapiens) (P25025 whole entry): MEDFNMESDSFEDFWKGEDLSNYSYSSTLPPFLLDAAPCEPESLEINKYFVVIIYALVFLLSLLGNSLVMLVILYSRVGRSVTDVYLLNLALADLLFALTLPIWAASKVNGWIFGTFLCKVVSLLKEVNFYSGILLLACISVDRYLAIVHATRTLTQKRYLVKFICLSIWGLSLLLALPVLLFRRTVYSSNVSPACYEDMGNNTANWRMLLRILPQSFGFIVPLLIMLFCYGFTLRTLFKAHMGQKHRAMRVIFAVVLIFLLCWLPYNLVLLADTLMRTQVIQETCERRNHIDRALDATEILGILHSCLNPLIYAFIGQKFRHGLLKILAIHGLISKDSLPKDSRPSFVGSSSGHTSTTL

Sequence of IL-8 (P10145 28-99): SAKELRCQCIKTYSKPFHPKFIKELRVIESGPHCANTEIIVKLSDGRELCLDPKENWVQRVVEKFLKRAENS
Sequence of CXCR1 (Homo sapiens) (P25024 whole entry): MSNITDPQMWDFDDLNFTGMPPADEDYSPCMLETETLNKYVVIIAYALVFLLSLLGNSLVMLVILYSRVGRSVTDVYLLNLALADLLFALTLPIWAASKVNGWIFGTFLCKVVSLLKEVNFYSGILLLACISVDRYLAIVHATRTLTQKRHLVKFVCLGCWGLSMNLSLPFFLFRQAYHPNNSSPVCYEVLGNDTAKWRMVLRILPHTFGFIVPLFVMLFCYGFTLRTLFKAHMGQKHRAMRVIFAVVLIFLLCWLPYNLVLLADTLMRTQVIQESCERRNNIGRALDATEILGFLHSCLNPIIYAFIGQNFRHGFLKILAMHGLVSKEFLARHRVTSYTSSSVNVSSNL

Kd (CXCR1 (Homo sapiens)): 2 nM | Kd (CXCR2 (Homo sapiens)): 2 nM
Substance: IL-8 (from UniProt P10145)
